Measurements as given in the nanobody polyreactivity screen of Harvey et al. (2022).

Assay: yeast display, Sf9 membrane polyspecificity reagent, FACS + sequencing; frameworks hold sequencing errors
In short: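 A nanobody's polyreactivity label depends on the gate it was sorted from. Yeast display cells were stained with 10% biotinylated, detergent-solubilized Sf9 membrane reagent for 1 hour at 4 °C, enriched on streptavidin microbeads and sorted by FACS. The low and high (top ~1%) gates were set on anti-HA fluorescence for expression and streptavidin fluorescence for reagent binding.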

| Sequence | polyreactivity (PSR sort gate) |
| --- | --- |
| QVQLVESGGGLVQAGGSLRLSCAASGSIFIYYTMGWYRQAPGKEREFVASISWRGGRTYYADSVKGRFTISRDNAKNTVYLQMNSLKPEDTAVYYCAAKSRAYSYRMDYWGQGTQVTVSS | high polyreactivity |
| QVQLVESGGGLVQAGGSLRLSCASSGSIFYDNAMGWYRQAPGKDRELVAAITVTGGSTYYADSVKGRFTISRDNAKNTVYLQMNSLKPEDTAVFYCAADPDYFDYWGQGTQVTVSS | low polyreactivity |
| QGQLVESGGGLVQAGGSLRLSCAASGRTFYRYAMGWYRQAPGKERELVAAITRRGDSTSYADSVKGRFTISRDNAKNTVYLQMNSLKPEDTAVYYCATLVQGSVYGLYGGGYWGQGTQVTVSS | low polyreactivity |
| QVQLVESGGGLVQAGGSLRLSCAASGNIFAINAMGWYRQAPGKERELVAAITWSSARTYYADSVKGRFTISRDNAKNTVYLQMNSLKPEDTAVYYCNAPALFEYDYWGQGTQVTVSS | high polyreactivity |
| QVQLVESGGGLVQAGGSLRLSCAASGSIFQYNAMGWYRQAPGKEREFVADISYSGGTTDYADSVKGRFTISRDNAKNTVYLQMNRLKPEDTAVYYCNADLSSGYPYSYYSATEYDYWGQGSQVTVSS | low polyreactivity |
| QVQLVESGGGLVQAGGSLRLSCAASGLTFRVNDMGWYRQAPGKERELVATISSGGSTYYADSVKGRFTISRDNAKNTVYLQMNSLKPEDTAVYYCATNSEGQESNSYYVWMGYWGQGTHVTVSS | low polyreactivity |
| QVQLVESGGGLVQAGGSLRLSCAASGFSFKLYAMGWYRQAPGKEREFVAAINRSGGSTYYADSVKGRFTISRDNAKNTVYLQMNSLKPEDTAVYYCAALAYTLYDYWGQGTQVTVSS | high polyreactivity |
| QVQLVESGGGLVQAGGSLRLSCAASGFIFPGYAMGWYRQAPGKERELVATISRRGGSTYYADSVKGRFTISRDNAKNTVYLQMNSLQPEDTAVYYCNRIVTYGWQYDYDYWGQGTQVTVSS | high polyreactivity |
| QVQLVESGGGLVQAGGSLRLSCAASGFTFGAYAMGWYRQAPGKERELVASISWSGGSTYYADSVKGRFTISRDNAKNTVYLQLNSLKPEDTAVYYCNKDFVYPDDDGLFDYWGQGTQVTVSS | low polyreactivity |
| QVQHVESGGGLVQAGGSLRLSCAASGLTSRYYAMGWYRQAPGKERELVAAISSRGGRTYYADSVKGPFTISRDNAKNTVYLQMNSLKPEDTAVYYCNAVRGYSGNLRDYWGQGTQVTVSS | high polyreactivity |
| QVQLVESGGGLVQAGGSLRLSCADSGNTLSYYVMGWYRQAPGKERELVADITSGGTTNYADSVKGRFTISRDNAKNTVYLQMNSLKAEDTAVYYCAAGPYKRPPWLRQGGYDYWGQGTQVTVSS | low polyreactivity |
| QVHLVESGGGLVEAGGSLRISCAAYGFIFGYNAMGWYRQAPGKERELVARINSGGNTNYADSVKGRFTISRDNAKNTVYLQMNSLKPEDTAVYYCARDASNRYDYWGQGNQVTVSS | low polyreactivity |
| QVQLVESGGGLVQAGGSLRLSCAASGRTFKNNAMGWYRQAPGKERELVAAISSNGGSTYYADSVKGRFTISRDNAKNTVYLQMNSLKPEDTAVYYCAADRTIVEYYYWGQGTQVTVSS | high polyreactivity |
| QVQLVESGGGLVQAGGSLRLSCAASGRIFARNTMGWYRQAPGKERELVAAISWGGGRTYYADSVKGRFTISRDNAKNTVYLQMNSLKPEDTAVYYCAAETLQIPRGEYWGQGTQVTVSS | low polyreactivity |
| QVQLVESGGGLVQAGGSLRLSCAASGRNFQWYSMGWSRQAPGKEREFVAAIRYSGGSTYYADSVKGRFTISRDNAKNTVYLQMNSMKPEDTSVYYCNARTGFLARNKRFGYWGQGTQVSVSS | high polyreactivity |
| QVQLVESGGGLVQAGGSLRLSCAASGRTFYPYAMGWYRQAPGKERELVAAISSGGSTTYADSVKGRFTISRDNAKNTVYLQMNSLKPEDTAVYYCAVYGTERLAFDYWGQGTQVTVSS | low polyreactivity |
| QVQLVESGGGLVQAGGSLRLSCAASGLTFDHNVMGWYRQAPGKERELVAAISRSGSSTYYADSVKGRFTISRDNAKNTVYLQMNSLKPEDTAVYYCAASDKRIYNLLRRYYYWGQGTQVTVSS | high polyreactivity |
| QVQLVESGGGLVQAGGSLRLSCAASGSIFFVNAMGWYRQAPGKERELVAAITSGGNTNYADSVKGRFTISRDNAKNTVYFQMNSLKPEDTAVFYSATSYYLAYRSITTYDYWGQGTQVTVSS | low polyreactivity |
| QVQLVESGGGLVQSGGSLRLSCAASGRIFRFYTMGWYRQAPGKERELVAAITQRGGRTYYADSVKGRFTISRDNAKNTVYLQMNSLKPEDTAVYYCAATTTVAEYDYWGQGTQVTVSS | high polyreactivity |
| QVQLVESGGGLVQAGGSLRLSCAASGRTFGAYAMGWYRQAPGKERELVAAISNGGRTYYADSVKGRFTISRDNAKNTVYLQMNSLKPEDTAVYYCNKVRSPWYDSWGQGTQVTVSS | high polyreactivity |
| QGQLVESGGGFVQAGGSLRLSCDASGNIFSANAMGWYRQAPWKEREFVAAISSTGGSTYYADSVKGRFTISRDNEMNTLYLQMNCLKPEDTAVYYCAAYIRRYFHYDYWRQGTQVTVSS | high polyreactivity |
| QVQLVESGGGLVQAGGSLRLSCAASGFIYNKYTMGWYRQAPGKERELVAAIRSSGGSTYYADSVKGRFTISRDNAKNTVYLQMNSLKPEDTAVYYCNALPYQVWKRYSWGQGTQVTVSS | high polyreactivity |

| Sequence | polyreactivity (PSR sort gate) |
| --- | --- |
| QVQLVESGGGLVQAAGSLRLSCAASGRIFEIYAMGWYRQAPGKERELVAGITSVGSTNYADSVKGRFTISRDNAKNTVYLQMNSLKPVDTAVYYCAADTSVHSEVDYCGQGTQVTVSS | low polyreactivity |
| QVQLVESCGGLVQAGGSLRLSCAPSGSIFVCYAMGWYRQAPWKEREFVAAITSGRGTYYADSVKGRFTRSRDNAQITVYLQMNSLKPEDTEVYYCNTVWRTRSFRAPAVAYGYWGQGTQVTVSS | high polyreactivity |
| QVQLVESGGGLVQAGGSLRLSCAASGSIFDPYAMGWYRQAPGKERELVAGISFSGGRTYYADSVKGRFTISRDNAKNTVYLQMNSLKPEDTAVYYCNKLLTQGAYPYYFWGQGTQVTVSS | high polyreactivity |
| QVQLVESGGGLVQAGGSLRLSCAASGSIFSTYAMGWYRQAPGKERELVAAISVSGSSTYYADSVKGRFTISRDNAKNTVYLQMNSLKPEDTAVYYCAADVPYGASIISYDYWGQGTQVTVSS | low polyreactivity |
| QVHLVESGGGLVQAGGSLRLSCAASGRTFWDYAMRWYRQAPGKEREFVAAINTYGGRTYYADSVKGRFTISRDNAINTVYLQMNSLKPEDTAVYYCADRTRDRAYDSWGQGTEVTVSS | high polyreactivity |
| QVQLVESGGGLVQAGGSLRLSCAASGRTVGSYVMGWYRHAPVKERELVATISRRGGTTYYADSVKARFTISRDNAKNTVYLQMNSLKPEDTAVYYCNRVIPLASYGYGYWGQGTQVTVSS | high polyreactivity |
| QVQLVESGGGLVQAGGSLRLSCAASGRTFSYYVMGWYRQAAGKERELVAAISRTTRTYYADSVKGRFSISRDNAKNTVYLHMNSLKPEDTAVYYCAADFPKGHYHYWGHGTQVTVSS | high polyreactivity |
| QVQLVESGGGLVQAGGSLRLSCAASGRTFPYYAMGWYRQAPGKERELVAAISSSGGSTYYADSVKGRFTISRDNAKNTVNLQMNSLKPEDTAVYYCAARAPYSYSGYGYWGQGTQVTVSS | high polyreactivity |
| QVQLVESGGGLVQAGGSLRISCAPSGLIFKYNAMGWYRQAPGKERDLVADINRSGGSTYYADSVKCRFTISRDNAKNTVYLQMNSLKPEDTEVYYCAAERDSLYWVLFGYWGQGTQVTVSS | low polyreactivity |
| QVQLVESGGGLVQAGGSLRLSCAASGITFFPYAMGWYIQAPGKERELVADITWRGGRTYYADSVKGRFTISRDNAKNTVYLQMNSLKPEDTAVYYCAKVARQNWFRYNYDYWGQGTQVTVSS | high polyreactivity |
| QVQLVESGGGLVQAGGILRISCAASGFIFDLYAMGWYRQAPGKERELVAAISGSGGSTYYADSVKGRFTISRDNAKNTVYLQMNSLKPEDTAVYYCAARRFGTNYDYWGQGTQVTVSS | high polyreactivity |
| QVQLVESGGGLVQAGGSLRISCAASGATFYYYAMGWYRQAPGKERELVASTYYADSVKGRFSISRDNAKNTVYLQMKSLKPEDTAVYYCAKRFKATYEYDYWGQGTQVTVSS | low polyreactivity |
| QVQLVESGGGLVQAGGSLRLSCAASGSTFTDYAMGWYRQAPGKERELVASITSGGRTNYADSVKGRFTISRDNAKNTVYLQMNSLKPEDTAVYYCNASAWLVVARTRYGYWGQGTQVTVSS | low polyreactivity |
| QVQLVESGGGLVQAGGSLRLSCAASGSIFAPYAMGWYRQAPGKERELVAAISWSGDSTYYADSVKGRFTISRDNAKNTVYLQMNSLKPEDTAVSYCAAAGGFDYDYWGQATQVTVSS | low polyreactivity |
| QVQLVESGGGLVQAGGSLRLSCAASGSTLRAYTMGWYRQAPGKERELVATITRRGGTTYYADSVKGRFTISRDNAKNTVYLQMNSLKPEDTAVYYCAAKWYSTHRYDYWGQGTQVTVSS | high polyreactivity |
| QDQLVESGGGLVQARGSLRLSCAASGRIIKRYVMGWYRQAPGTERELVAAITSGGTNYADSVKGRFTISRDNAKNTVYLQMNSRKPEDTAVYSCAARYLYRAGSNYWGQGTQVTVSS | high polyreactivity |
| QVQLVESGGGLVQAGGSLRLSCAASGFIFNSYAMGWYRQAPGKERELVAAISRRGSSTYYADSVKGRFTISRDNAKNTVYLQMNSLKPEDTAVYYCAKRDRSTSWYLRDYWGQGTQVTVSS | high polyreactivity |
| QVQLVESGGGLVQAGGSLRLSCAASGSTFHPNAMGWCRQAPRKQRELFAAITWSTSVTYYADSVKGRFTISRDNAKNTVFLQMISLKPEDSAVYYCNAGYMLDSFRYDHWGQCTQVTVSS | low polyreactivity |
| QVQLVESGGGLVQAGGSLRLSCAASGFTFDTYAMGWYRQAPGKERELVAAISWGGGSTFYADSVKGRFTISRDNAKNTVYLQMNSLKPEDTAVYYCAAEIPGYYVFNYGYWYYEYDYWGQGTQVTVSS | high polyreactivity |
| QVQLVESGGGLVQAGGSLRLSCAASGLTFASYAMGWYRQSPGKERELVARISRSGGSTYYADSVKGRFTISRDNAKNTVYLQMNSLKPEDTAVYYCAARNSYGNWRYYYWGQGTQVTVSS | high polyreactivity |
| QVQLVDSGGGLVQAGGSLRLSCAASGSTFVYYAMGWYRQAPGKERELVAAITWNGGSTYYADSVKGRFTISRDNAKNTVYLQMNSLKPEDTAVYYCNAEYPVYFEGYPYYWDYWGDSWGQGTQVTVSS | high polyreactivity |
